The source of these data is publication PMC7596504, “Molecular mechanism of the MORC4 ATPase activation” (Nature Communications, 2020).

This assay has as its system NCP252. As to the kind of experiment: FRET, Gal4 titration into Cy3-Cy5 labeled NCP252. The class given is binding. As for the experimental part: Histone octamers unlabeled or labeled with Cy5 at H2AK119 were prepared as previously described. NCPs were reconstituted by combining octamer with 1.25× excess DNA and performing slow salt dialysis. Free DNA was then separated from fully reconstituted NCPs by sucrose gradient purification. NCPs for fluorescence polarization assays were reconstituted from unlabeled octamer and 207 bp DNA containing the 601 Widom sequence flanked with a 30 bp linker on either side and internally labeled with Fluorescein 27 bp in from the 5′ end. […]
Cy3-Cy5 NCP FRET efficiency measurements were carried out on a Horiba Scientific Fluoromax 4. […] LexA titrations were carried out in 20 mM Tris pH 7.5, 75 mM NaCl, 10% glycerol, 0.00625% Tween 20 buffer with 5 nM 147 bp Cy3-Cy5 NCPs mixed in 20 µL reaction volumes and allowed to incubate for 5 mins at 4 °C before FRET of the sample was measured. […] Gal4 (1–147) titrations were carried out in 10 mM Tris pH 8, 130 mM NaCl, 10% glycerol, 0.0075% Tween 20 buffer with 1 nM 252 bp Cy3-Cy5 nucleosomes mixed in 60 µL reaction volumes and allowed to incubate for 10 mins at room temperature before FRET of the sample was measured. […]

B1: ATPaseCW: ATPaseCW cassette (aa 29–486) of human MORC4 (Q8TE76) (protein)
chain: GIRLSTMSPRYLQSNSSSHTRPFSAIAELLDNAVDPDVSARTVFIDVEEVKNKSCLTFTDDGCGMTPHKLHRMLSFGFTDKVIKKSQCPIGVFGNGFKSGSMRLGKDALVFTKNGGTLTVGLLSQTYLECVQAQAVIVPIVPFNQQNKKMIITEDSLPSLEAILNYSIFNRENDLLAQFDAIPGKKGTRVLIWNIRRNKNGKSELDFDTDQYDILVSDFDTEEKMTGGVTSELPETEYSLRAFCGILYMKPRMKIFLRQKKVTTQMIAKSLANVEYDTYKPTFTNKQVRITFGFSCKNSNQFGIMMYHNNRLIKSFEKVGCQVKPTRGEGVGVIGVIECNFLKPAYNKQDFEYTKEYRLTINALAQKLNAYWKEKTSQDNFETSTVARPIPKVPDQTWVQCDECLKWRKLPGKIDPSMLPARWFCYYNSHPKYRRCSVPEEQELTDEDLCLSKAKKQE
modifications: left off: GST, end not stated, cleaved
On to B1, for which the “effect on nucleosome unwrapping-wrapping equilibrium” value is on record as “shifts the unwrapping-wrapping equilibrium toward the wrapped state”.
